Data published in the nanobody polyreactivity screen of Harvey et al. (2022).

Test: yeast display, Sf9 membrane polyspecificity reagent, FACS + sequencing; frameworks hold sequencing errors
Outline: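 A nanobody's polyreactivity label depends on the gate it was sorted from. Yeast display cells were stained with 10% biotinylated, detergent-solubilized Sf9 membrane reagent for 1 hour at 4 °C, enriched on streptavidin microbeads and sorted by FACS. The low and high (top ~1%) gates were set on anti-HA fluorescence for expression and streptavidin fluorescence for reagent binding.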

Sequence | polyreactivity (PSR sort gate)
QDQHVESGGGLLQAGGSLRLTCAAYGSIFTDYAMGWYRQPPGKERELVAAITRIGTRTYYADSVKGRFTISRDNAKNTVYLQMNSLKPEDTAVYYCAASGYSPVRWVWLYYWGQGTQVTVSS | high polyreactivity
QDQHVESGGGLVQAGGSLRLICAASGFTFSHYPMGSYRQAPGKERELVAAINWSGGSTDYADSVKGRFTLSRDNAMNTVYLQMNSLKPVDTAVYYCNTVSYAYWGYYYWGQGTQVTLSS | high polyreactivity
QDQHVESGGGLVQAGGSLRLSCAASGGIFQSYTMGRYRQAPGKEREFVAAITYSGGSTHYADSVKGRFTISRDKAKNTVYLQMNSLKPEDTAVYYCNADRYYGRGYGYWGQGTQVTVSS | low polyreactivity
QDQHVESGGGLVQAGGSLRLSCAASGIIFTRNAMGWYRQAPGKERELVAVISWGGRTYYADSVKGRFTISRDNAKNTVYLQMNSLKPEDTAVYYCNARAPYPVGGRKGDYWGQGTQVTVSS | high polyreactivity
QDQHVESGGGLVQAGGSLRLSCAASGIIFYDNTMGWYRQAPGKERELVASITWRGGSTYYADSVKGRFTISRDNAKNTVYLQMNSLKPEDTAVYYCNADSSDDYDYWGQGTQVTVSS | low polyreactivity
QDQHVESGGGLVQAGGSLRLSCAASGRTFVPYAMGWYRQAPGKERELVATISRSGGRTNYADSVKGRFTISRDNAKNTVYIQMNSLKPEDTAVYYCAATGFLTWRHMYYWGQGTQVTVSS | high polyreactivity
QDQHVESGGGLVQAGGSLRLSCAASVITYGRYVMGWDRQAPGKERELVAAITGSGGSTYYADSVKGRFTISRDNAKNTVYLQMNSLKAEDTAVYYCAAAGGYRFDYWGQGTQVTVSS | high polyreactivity
QDQHVESGGGLVQAGGSLRLSCSASGRTFDYYAMGWYRQAPGKERELVAAINSGGNTYYADSVKGRFTISRDNAKNTVYLQMNSLKPEDTAVYYCAAYYRDKLSGYNYWGQGTQVTVSS | high polyreactivity
QDQHVESGGGVVQAGGSRRLSCAASGFTISSYAMGWYRPAPGKERHLVAAITWSGSRTYYADSVKGRFTISRDNAKNTVYLQMNSLKPEDTAVYYCAATYRSYRGVRYYLGQGTQVTVSS | high polyreactivity
QDQHVESGRGLVQEGGSLRLSSPPSGRTIYEYAIGWYRQAPGKETQLVAGITTSGGSTYYAVSVKGRFTISRDNAKNTVYLQMNSLKPEDTAVYYCAKYRKSRGDNDSWGQGTQVTVSS | high polyreactivity
QDQIVDSRGVLVQEGGSLGLSCAASGLTIYSYAMGFSRQAPRKERELVATITNGDTTTYAETVKARFTISRDNAKNNVIFQFNILKPEDTAVYYCAQHISPGYDEYDYWGQGTQVTVSS | low polyreactivity
QDQLEESGGGLVQEGGSLRIICDAYRSTFYANTMGWYRQSTGKERELVATISIDGSTNYADSVKGRFTFSRDYAKNTVYLQMNSLKPEDTAVYYCNADVYSVLYGYWGQGTQVSVSS | low polyreactivity
QDQLEESGVGLLQAGGSLRLSCAASGNTFFVNDMGWYRHAPRKERELLAVISINGDSTFYADSVKGRFTISRDNAKNTVYLQMNSLKPEDTAVYYCAADFRRVFCKYSYYLYFEFDYWGQGTQVTVSS | low polyreactivity
QDQLGESGGGLVQAGGSLRLSCAAAGSIFGTNAMGWYRQAPGKEREFVATISSRTGSTYYADSVKGRFTISRDNAKNRVYLQMNSLKPEDPAVYYCAAVRWYGKYDDWGQGTQVTVSS | low polyreactivity
QDQLGESGGGLVQAGGSLRLSCAASGSTFRYYAMGWYRQAPGKERELLAAITSSGGSTYYADSVKGRFTISRDNAMNTVYLQMNSLNPEDTAVYYCAVAVKNWVKLNYWGQGTQVTVSS | high polyreactivity
QDQLLESGGGLGQAGGSLRLSCAASGITFGRYAMGWYRQAPGKERELVAAITWGGGSTYYADSVKGRFTISRDNAKNTVYLQMNSLKPEDTAVYYCAARSYGRWFGGYDSWGQGTQVTVSS | high polyreactivity
